± gives the half width of the 95% confidence interval.
Experiments:
[1] = folding stability dG unfold from chymotrypsin proteolysis; higher = more stable
Summary of the method: (§1)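 Bayesian fitting of sequencing counts gave K50 for each design. Unfolding free energy followed by setting this against a sequence-predicted unfolded-state K50 and a shared folded-state K50, either per protease or with trypsin and chymotrypsin combined. The designs, under 80 residues and lacking cysteine, were digested in a PA-tagged cDNA display format at 11 threefold-diluted protease concentrations and without protease, and only those with AlphaFold2 dimer inter-PAE above 15 were kept.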

[2] = folding stability dG unfold from trypsin proteolysis; higher = more stable
Summary of the method: as §1

[3] = folding stability dG unfold (combined trypsin and chymotrypsin); higher = more stable
Summary of the method: as §1

Sequence	folding stability dG unfold [1] [kcal/mol]	folding stability dG unfold [2] [kcal/mol]	folding stability dG unfold [3] [kcal/mol]
PKIEITRVEYHPNEGYYRVTVKLPGKDVSIYMGPENGMMQVYFPGNGREREFPFDSMDDAVDRAKELLKERS [r1_177_TrROS]	1.55 ± 0.11	1.33 ± 0.12	1.23 ± 0.28
SAMKYLVEVTADLGGPSVRYELDAESIEEAIEKVKEKLKPLFPDAPLKNITLTFHDPSSDETTTVNIVESAG [r14_54_JUSTAS]	3.54 ± 0.031	3.36 ± 0.067	3.49 ± 0.062
SAMMVVYYDPETGELVLVDPSEIPPELVEKGIEPVRLVPLRILVEVESEEEAEELARLFPDLVEVSLNPSAG [r14_638_TrMRF]	1.83 ± 0.032	1.97 ± 0.045	1.88 ± 0.098
SAGGSAGGSATKTIKVKNADGETVELTVEKREDGSYKITLTFPDGTKKTFTIKPGEKIVIKPSAGGSAGGSA [r18_115_TrROS_Hall]	4.24 ± 0.098	2.42 ± 0.11	3.9 ± 0.12
SATAVVIKAEVIFPNNEKKEISVVIENLTEEEVEELAEELEKKIKEEAGIPDIEVKIKVETFAKDDPAFSAG [r14_207_TrMRF]	1.01 ± 0.09	0.438 ± 0.16	1.04 ± 0.3
SAGFGVYKHKYKYDNDDGNPKPKKPEEEPVEPAPPIEPLPIPIRLPDGQPFTFTILSISPKNNNISLNGSAG [r5_735_TrROS]	0.382 ± 0.2	0.279 ± 0.22	0.452 ± 0.2
SAGGKMVKIEITLSPEEIEKIKEKLEEETGLEVEIKVEKNENGEVKLIITFKSEEAAKKALEKLGIESAGGS [r16_172_TrROS_Hall]	3.7 ± 0.15	2.63 ± 0.16	3.42 ± 0.14
SAGGSAGGSAMTTTSTSTYPDSITTTTTTTVDGTYIITTTTFYPATGTTTTTTTTLPPSLTSAGGSAGGSAG [r3_316_JUSTAS]	1.987 ± 0.011	2.91 ± 0.093	2.41 ± 0.048
SAGGSVEIWILLPPNNPDLDKIREKLRDEPGIDDVNVKVVKPTPGYWVFEIEVNGDPEVADKIRDLISAGGS [r16_394_TrROS]	1.61 ± 0.18	1.09 ± 0.1	1.51 ± 0.26
SMKKNYKIKIEIIDIKIYNKNIPKNKPKYITIKAKITIYYKNKPYKYTIEIKYKIYNGKIYIIGSKIKPESA [r9_270_TrMRF]	3.761 ± 0.025	3.36 ± 0.1	3.66 ± 0.11
SAGGSAGGSAGGKTYKITVSSGDTYLTISIELPDGLVLTYKITPNSIEVEIKPLKDFNESAGGSAGGSAGGS [r10_1169_TrMRF]	5.3 ± 0.2	3.42 ± 0.19	5.51 ± 0.43
SMLPLLPPRRLLIEVVFPLPEDATPEQLELAERAAEALADVLEALGFKDVRVLVEPTDPGDVLILAEVEASA [r9_865_TrMRF]	1.97 ± 0.034	1.49 ± 0.023	1.82 ± 0.074
SAGGMVITIPTTTSSIEEAIEAVKKKVEEEGYKVTEIKDIKVSTDPKTGKINVTATVIVEKLPKEEKSAGGS [r16_155_JUSTAS]	2.85 ± 0.22	0.99 ± 0.057	2.55 ± 0.3
SAGGSAGGSAGDKPITIFIPGTPDDIKDYIEDEGFKIKDIEIQYHKNKDGKYWVMVTIRVSAGGSAGGSAGG [r11_632_TrROS]	3.33 ± 0.13	2.87 ± 0.18	3.19 ± 0.25
SAGGSAGGSASKTIFIPAAVVAANPEKAVEFAEKVREEFEKKGLSVKTEVLPDGGIGIHVGSAGGSAGGSAG [r3_75_TrMRF]	1.61 ± 0.054	2.07 ± 0.071	1.88 ± 0.087
SAGGSAGGDPPNVKIEPEIEPRRDPDGKPYVKIPYTIELPDGRPIQIDMWIDPKNGNQGPHIHISAGGSAGG [r6_298_TrROS]	0.486 ± 0.31	0.817 ± 0.24	0.64 ± 0.54
SAGGSAGGSAMIVKEFVTYDPSTGTRTRTTVTLELYDSPEGGAVVVLEEEVDPVGPLPPLESAGGSAGGSAG [r3_397_JUSTAS]	0.000665 ± 0.17	0.704 ± 0.062	0.323 ± 0.12

— the supplement of paper PMC12764529
